Assay results as given in PMC6353875 (2019).

Target: EZH2 SRM-SANT1 (residues 141–251) (human, UniProt Q15910 141-251)
Test: NMR

Chain of EZH2 SRM-SANT1 (residues 141–251) (Q15910 141-251): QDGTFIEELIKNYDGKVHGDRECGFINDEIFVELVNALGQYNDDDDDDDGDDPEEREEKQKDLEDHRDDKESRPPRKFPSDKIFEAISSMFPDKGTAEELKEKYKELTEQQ

Q: For PEPAKSAPAPK [unmodified histone H2B peptide (residues 1–11)], which Kd is on record?
A: > 5 mM
